T1: human CXCR3 (hCXCR3) on Ba/F3 transfectant cells (human, UniProt P49682 1-368)
T1 sequence: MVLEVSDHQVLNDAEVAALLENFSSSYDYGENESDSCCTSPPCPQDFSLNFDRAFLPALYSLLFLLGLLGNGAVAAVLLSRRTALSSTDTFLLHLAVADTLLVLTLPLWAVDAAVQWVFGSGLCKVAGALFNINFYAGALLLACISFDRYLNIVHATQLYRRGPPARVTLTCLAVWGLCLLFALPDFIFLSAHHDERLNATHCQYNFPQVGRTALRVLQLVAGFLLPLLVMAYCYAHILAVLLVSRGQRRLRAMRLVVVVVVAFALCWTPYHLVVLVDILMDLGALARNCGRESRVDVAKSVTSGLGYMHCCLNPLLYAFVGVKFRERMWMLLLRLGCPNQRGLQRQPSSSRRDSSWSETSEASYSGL

B1: hCXCL11.0027-G1T4k.one//VHn-G1T4h.one.H435R (Fc fusion)
chain 1: IFPMFKRGRCLCIGPGVKAVKVADIEKASIMYPSNNCDKIEVIITLKENKGQRCLNPKSKQARLIIKKVERKNFEPKSSDKTHTCPPCPAPELRRGPSVFLFPPKPKDTLMISRTPEVTCVVVDVSHEDPEVKFNWYVDGVEVHNAKTKPREEQYNSTYRVVSVLTVLHQDWLNGKEYKCKVSNKGLPSSIEKTISKAKGQPREPQVCTLPPSREEMTKNQVSLWCLVKGFYPSDIAVEWESNGQPENNYKTTPPVLDSDGSFFLYSKLTVDKSRWQEGNVFSCSVMHEALHNHYTQKSLSLSP
chain 2: EPKSSDKTHTCPPCPAPELRRGPSVFLFPPKPKDTLMISRTPEVTCVVVDVSHEDPEVKFNWYVDGVEVHNAKTKPREEQYNSTYRVVSVLTVLHQDWLNGKEYKCKVSNKGLPSSIEKTISKAKGQPREPQVYTLPPSRCEMTKNQVSLSCAVKGFYPSDIAVEWESNGQPENNYKTTPPVLDSDGSFFLVSKLTVDKSRWQEGNVFSCSVMHEALHNRYTQKSLSLSP
B2: hCXCL11.0034-G1T4k.one//VHn-G1T4h.one.H435R (Fc fusion)
chain 1: RFPMFKRGRCLCIGPGVKAVKVADIEKASIMYPSNNCDKIEVIITLKENKGQRCLNPKSKQARLIIKKVERKNFEPKSSDKTHTCPPCPAPELRRGPSVFLFPPKPKDTLMISRTPEVTCVVVDVSHEDPEVKFNWYVDGVEVHNAKTKPREEQYNSTYRVVSVLTVLHQDWLNGKEYKCKVSNKGLPSSIEKTISKAKGQPREPQVCTLPPSREEMTKNQVSLWCLVKGFYPSDIAVEWESNGQPENNYKTTPPVLDSDGSFFLYSKLTVDKSRWQEGNVFSCSVMHEALHNHYTQKSLSLSP
chain 2: EPKSSDKTHTCPPCPAPELRRGPSVFLFPPKPKDTLMISRTPEVTCVVVDVSHEDPEVKFNWYVDGVEVHNAKTKPREEQYNSTYRVVSVLTVLHQDWLNGKEYKCKVSNKGLPSSIEKTISKAKGQPREPQVYTLPPSRCEMTKNQVSLSCAVKGFYPSDIAVEWESNGQPENNYKTTPPVLDSDGSFFLVSKLTVDKSRWQEGNVFSCSVMHEALHNRYTQKSLSLSP
B3: hCXCL11.0029-G1T4k.one//VHn-G1T4h.one.H435R (Fc fusion)
chain 1: LFPMFKRGRCLCIGPGVKAVKVADIEKASIMYPSNNCDKIEVIITLKENKGQRCLNPKSKQARLIIKKVERKNFEPKSSDKTHTCPPCPAPELRRGPSVFLFPPKPKDTLMISRTPEVTCVVVDVSHEDPEVKFNWYVDGVEVHNAKTKPREEQYNSTYRVVSVLTVLHQDWLNGKEYKCKVSNKGLPSSIEKTISKAKGQPREPQVCTLPPSREEMTKNQVSLWCLVKGFYPSDIAVEWESNGQPENNYKTTPPVLDSDGSFFLYSKLTVDKSRWQEGNVFSCSVMHEALHNHYTQKSLSLSP
chain 2: EPKSSDKTHTCPPCPAPELRRGPSVFLFPPKPKDTLMISRTPEVTCVVVDVSHEDPEVKFNWYVDGVEVHNAKTKPREEQYNSTYRVVSVLTVLHQDWLNGKEYKCKVSNKGLPSSIEKTISKAKGQPREPQVYTLPPSRCEMTKNQVSLSCAVKGFYPSDIAVEWESNGQPENNYKTTPPVLDSDGSFFLVSKLTVDKSRWQEGNVFSCSVMHEALHNRYTQKSLSLSP
B4: hCXCL11.0030-G1T4k.one//VHn-G1T4h.one.H435R (Fc fusion)
chain 1: MFPMFKRGRCLCIGPGVKAVKVADIEKASIMYPSNNCDKIEVIITLKENKGQRCLNPKSKQARLIIKKVERKNFEPKSSDKTHTCPPCPAPELRRGPSVFLFPPKPKDTLMISRTPEVTCVVVDVSHEDPEVKFNWYVDGVEVHNAKTKPREEQYNSTYRVVSVLTVLHQDWLNGKEYKCKVSNKGLPSSIEKTISKAKGQPREPQVCTLPPSREEMTKNQVSLWCLVKGFYPSDIAVEWESNGQPENNYKTTPPVLDSDGSFFLYSKLTVDKSRWQEGNVFSCSVMHEALHNHYTQKSLSLSP
chain 2: EPKSSDKTHTCPPCPAPELRRGPSVFLFPPKPKDTLMISRTPEVTCVVVDVSHEDPEVKFNWYVDGVEVHNAKTKPREEQYNSTYRVVSVLTVLHQDWLNGKEYKCKVSNKGLPSSIEKTISKAKGQPREPQVYTLPPSRCEMTKNQVSLSCAVKGFYPSDIAVEWESNGQPENNYKTTPPVLDSDGSFFLVSKLTVDKSRWQEGNVFSCSVMHEALHNRYTQKSLSLSP
B5: hCXCL11.0031-G1T4k.one//VHn-G1T4h.one.H435R (Fc fusion)
chain 1: NFPMFKRGRCLCIGPGVKAVKVADIEKASIMYPSNNCDKIEVIITLKENKGQRCLNPKSKQARLIIKKVERKNFEPKSSDKTHTCPPCPAPELRRGPSVFLFPPKPKDTLMISRTPEVTCVVVDVSHEDPEVKFNWYVDGVEVHNAKTKPREEQYNSTYRVVSVLTVLHQDWLNGKEYKCKVSNKGLPSSIEKTISKAKGQPREPQVCTLPPSREEMTKNQVSLWCLVKGFYPSDIAVEWESNGQPENNYKTTPPVLDSDGSFFLYSKLTVDKSRWQEGNVFSCSVMHEALHNHYTQKSLSLSP
chain 2: EPKSSDKTHTCPPCPAPELRRGPSVFLFPPKPKDTLMISRTPEVTCVVVDVSHEDPEVKFNWYVDGVEVHNAKTKPREEQYNSTYRVVSVLTVLHQDWLNGKEYKCKVSNKGLPSSIEKTISKAKGQPREPQVYTLPPSRCEMTKNQVSLSCAVKGFYPSDIAVEWESNGQPENNYKTTPPVLDSDGSFFLVSKLTVDKSRWQEGNVFSCSVMHEALHNRYTQKSLSLSP
B6: hCXCL11.0028-G1T4k.one//VHn-G1T4h.one.H435R (Fc fusion)
chain 1: KFPMFKRGRCLCIGPGVKAVKVADIEKASIMYPSNNCDKIEVIITLKENKGQRCLNPKSKQARLIIKKVERKNFEPKSSDKTHTCPPCPAPELRRGPSVFLFPPKPKDTLMISRTPEVTCVVVDVSHEDPEVKFNWYVDGVEVHNAKTKPREEQYNSTYRVVSVLTVLHQDWLNGKEYKCKVSNKGLPSSIEKTISKAKGQPREPQVCTLPPSREEMTKNQVSLWCLVKGFYPSDIAVEWESNGQPENNYKTTPPVLDSDGSFFLYSKLTVDKSRWQEGNVFSCSVMHEALHNHYTQKSLSLSP
chain 2: EPKSSDKTHTCPPCPAPELRRGPSVFLFPPKPKDTLMISRTPEVTCVVVDVSHEDPEVKFNWYVDGVEVHNAKTKPREEQYNSTYRVVSVLTVLHQDWLNGKEYKCKVSNKGLPSSIEKTISKAKGQPREPQVYTLPPSRCEMTKNQVSLSCAVKGFYPSDIAVEWESNGQPENNYKTTPPVLDSDGSFFLVSKLTVDKSRWQEGNVFSCSVMHEALHNRYTQKSLSLSP
B7: hCXCL11.0032-G1T4k.one//VHn-G1T4h.one.H435R (Fc fusion)
chain 1: PFPMFKRGRCLCIGPGVKAVKVADIEKASIMYPSNNCDKIEVIITLKENKGQRCLNPKSKQARLIIKKVERKNFEPKSSDKTHTCPPCPAPELRRGPSVFLFPPKPKDTLMISRTPEVTCVVVDVSHEDPEVKFNWYVDGVEVHNAKTKPREEQYNSTYRVVSVLTVLHQDWLNGKEYKCKVSNKGLPSSIEKTISKAKGQPREPQVCTLPPSREEMTKNQVSLWCLVKGFYPSDIAVEWESNGQPENNYKTTPPVLDSDGSFFLYSKLTVDKSRWQEGNVFSCSVMHEALHNHYTQKSLSLSP
chain 2: EPKSSDKTHTCPPCPAPELRRGPSVFLFPPKPKDTLMISRTPEVTCVVVDVSHEDPEVKFNWYVDGVEVHNAKTKPREEQYNSTYRVVSVLTVLHQDWLNGKEYKCKVSNKGLPSSIEKTISKAKGQPREPQVYTLPPSRCEMTKNQVSLSCAVKGFYPSDIAVEWESNGQPENNYKTTPPVLDSDGSFFLVSKLTVDKSRWQEGNVFSCSVMHEALHNRYTQKSLSLSP
B8: hCXCL11.0033-G1T4k.one//VHn-G1T4h.one.H435R (Fc fusion)
chain 1: QFPMFKRGRCLCIGPGVKAVKVADIEKASIMYPSNNCDKIEVIITLKENKGQRCLNPKSKQARLIIKKVERKNFEPKSSDKTHTCPPCPAPELRRGPSVFLFPPKPKDTLMISRTPEVTCVVVDVSHEDPEVKFNWYVDGVEVHNAKTKPREEQYNSTYRVVSVLTVLHQDWLNGKEYKCKVSNKGLPSSIEKTISKAKGQPREPQVCTLPPSREEMTKNQVSLWCLVKGFYPSDIAVEWESNGQPENNYKTTPPVLDSDGSFFLYSKLTVDKSRWQEGNVFSCSVMHEALHNHYTQKSLSLSP
chain 2: EPKSSDKTHTCPPCPAPELRRGPSVFLFPPKPKDTLMISRTPEVTCVVVDVSHEDPEVKFNWYVDGVEVHNAKTKPREEQYNSTYRVVSVLTVLHQDWLNGKEYKCKVSNKGLPSSIEKTISKAKGQPREPQVYTLPPSRCEMTKNQVSLSCAVKGFYPSDIAVEWESNGQPENNYKTTPPVLDSDGSFFLVSKLTVDKSRWQEGNVFSCSVMHEALHNRYTQKSLSLSP

The test concerns the target T1, human CXCR3 (hCXCR3) on Ba/F3 …. Put plainly: cell-based or functional assay.
As for B1, the “Activity retention rate at 33 nM” value turned out to be 67%, the “Activity retention rate at 100 nM” value was 100%, the “Activity retention rate at 300 nM” value turned out to be 102% and the “Luminescence value at 33 nM” value came to 5.18e+06. Further, the “Luminescence value at 100 nM” value was determined as 1.67e+07 and the “Luminescence value at 300 nM” value turned out to be 1.27e+07.
Regarding B2, the “Activity retention rate at 33 nM” value came out at 19%, the “Activity retention rate at 100 nM” value was found to be 45%, the “Activity retention rate at 300 nM” value worked out at 77% and the “Luminescence value at 33 nM” value amounted to 1.49e+06. For the same molecule, the “Luminescence value at 100 nM” value was determined as 7.45e+06 and the “Luminescence value at 300 nM” value is 9.63e+06.
For the molecule B3, the “Activity retention rate at 33 nM” value came out at 53%, the “Activity retention rate at 100 nM” value worked out at 92%, the “Activity retention rate at 300 nM” value is 108% and the “Luminescence value at 33 nM” value stood at 4.07e+06. In addition, the “Luminescence value at 100 nM” value amounted to 1.54e+07 and the “Luminescence value at 300 nM” value was determined as 1.34e+07.
On to B4, for which the “Activity retention rate at 33 nM” value was found to be 114%, the “Activity retention rate at 100 nM” value came to 98%, the “Activity retention rate at 300 nM” value was determined as 86% and the “Luminescence value at 33 nM” value turned out to be 8.75e+06. Further, the “Luminescence value at 100 nM” value was found to be 1.64e+07 and the “Luminescence value at 300 nM” value stood at 1.06e+07.
For the molecule B5, the “Activity retention rate at 33 nM” value is 165%, the “Activity retention rate at 100 nM” value amounted to 90%, the “Activity retention rate at 300 nM” value was determined as 51% and the “Luminescence value at 33 nM” value was determined as 1.27e+07. The “Luminescence value at 100 nM” value came to 1.51e+07 and the “Luminescence value at 300 nM” value turned out to be 6.39e+06.
In the case of B6, the “Activity retention rate at 33 nM” value turned out to be 26%, the “Activity retention rate at 100 nM” value was determined as 53%, the “Activity retention rate at 300 nM” value came out at 90% and the “Luminescence value at 33 nM” value came out at 2e+06. Further, the “Luminescence value at 100 nM” value was determined as 8.87e+06 and the “Luminescence value at 300 nM” value came to 1.11e+07.
B7: the “Activity retention rate at 33 nM” value was 33%, the “Activity retention rate at 100 nM” value was determined as 68%, the “Activity retention rate at 300 nM” value turned out to be 105% and the “Luminescence value at 33 nM” value turned out to be 2.5e+06. Further, the “Luminescence value at 100 nM” value amounted to 1.13e+07 and the “Luminescence value at 300 nM” value amounted to 1.31e+07.
Regarding B8, the “Activity retention rate at 33 nM” value was 199%, the “Activity retention rate at 100 nM” value was determined as 92%, the “Activity retention rate at 300 nM” value stood at 28% and the “Luminescence value at 33 nM” value worked out at 1.53e+07. The “Luminescence value at 100 nM” value stood at 1.53e+07 and the “Luminescence value at 300 nM” value is 3.46e+06.
